B2: gC1qA module of C1q-scGR (residues 88-223 of mature C1qA) (domain or fragment, human, UniProt P02745 110-245, looked up)
chain: KDQPRPAFSAIRRNPPMGGNVVIFDTVITNQEEPYQNHSGRFVCTVPGYYYFTFQVLSQWEICLSIVSSSRGQVRRSLGFCDTTNKGLFQVVSGGMVLQLQQGDQVWVEKDPKKGHIYQGSEADSVFSGFLIFPSA
modifications: N-glycan at Asn 124
notes: globular domain of human C1q chain A; numbers count on: the mature protein; In the crystal it is joined on one chain with gC1qC (Gly-Ser-Gly linker) and gC1qB: see m1; also called subunit A; source: 293-F cells, as part of the single chain C1q-scGR, purified
B4: recombinant human calreticulin (natural protein, UniProt P27797 18-417, looked up)
chain: EPAVYFKEQFLDGDGWTSRWIESKHKSDFGKFVLSSGKFYGDEEKDKGLQTSQDARFYALSASFEPFSNKGQTLVVQFTVKHEQNIDCGGGYVKLFPNSLDQTDMHGDSEYNIMFGPDICGPGTKKVHVIFNYKGKNVLINKDIRCKDDEFTHLYTLIVRPDNTYEVKIDNSQVESGSLEDDWDFLPPKKIKDPDASKPEDWDERAKIDDPTDSKPEDWDKPEHIPDPDAKKPEDWDEEMDGEWEPPVIQNPEYKGEWKPRQIDNPDYKGTWIHPEIDNPEYSPDPSIYAYDNFGVLGLDLWQVKSGTIFDNFLITNDEAYAEEFGNETWGVTKAAEKQMKDKQDEEQRLKEEEEDKKRKEEEEAEDKEDDEDKDEDEEDEEDKEEDEEEDVPGQAKDEL
notes: human calreticulin, recombinant; also called CRT
B5: recombinant human receptor for the globular heads of C1q (gC1qR) (receptor, UniProt Q07021 74-282, looked up)
chain: LHTDGDKAFVDFLSDEIKEERKIQKHKTLPKMSGGWELELNGTEAKLVRKVAGEKITVTFNINNSIPPTFDGEEEPSQGQKVEEQEPELTSTPNFVVEVIKNDDGKKALVLDCHYPEDEVGQEDEAESDIFSIREVSFQSTGESEWKDTNYTLNTDSLDWALYDHLMDFLADRGVDNTFADELVELSTALEHQEYITFLEDLKSFVKSQ
notes: the mature protein is recalled to begin at residue 74 of the precursor; also called receptor for C1q globular heads

Common to all, as to conditions: both partners purified
The target of test [1] is B2. As to the kind of experiment: crystal structure; C1q-scGR crystallised with and without calcium in the reservoir; 1.35 and 1.55 Å.
In test [2] the target is T1, gC1qB module of C1q-scGR (residues 90-226 of mature C1qB) (human, UniProt P02746 117-253).
T1 construct: globular domain of human C1q chain B; numbers count on: the mature protein; In the crystal it is joined on one chain after gC1qC (Gly-Ser-Ala linker): see m1; also called subunit B; source: 293-F cells, as part of the single chain C1q-scGR, purified
The test is described as above.

The target of test [3] is B4. As to the kind of experiment: SPR; Biacore 3000, 25°C; CRT, gC1qR and PTX3 amine-coupled on CM5; C1q samples flowed at 20 μl/min in 50 mM Tris-HCl, 150 mM NaCl, 2 mM CaCl2, 0.005% P20, pH 7.4; global fit 1:1 Langmuir (two-state model for C1q-CRT); apparent KD. Background: In SPR one partner is held on a chip, and binding of the other changes the refractive index at the surface.

Test [4] addresses B5. The description is as above.
Test [5] has as its target T2, recombinant human long pentraxin PTX3 (human, UniProt P26022 18-381).
T2 construct: human pentraxin 3, recombinant
The test is described as above.

Test [6] deals with T3, globular regions of C1q prepared by collagenase digestion of serum-derived C1q (C1q-GR) (human, UniProt P02745 112-245; P02746 118-253; P02747 115-245).
T3 construct: globular region of human C1q chain A left after collagenase digestion; globular region of human C1q chain B left after collagenase digestion; globular region of human C1q chain C left after collagenase digestion; Heterotrimer of the three globular modules; Mw 48,000 used for concentration; also called serum-derived C1q-GR; plasma-derived C1q-GR; source: collagenase digestion of C1q purified from …
The test is described as above.

For test [7], the target named is T4, C1q purified from human serum (full-length C1q) (human, UniProt P02745 23-245; P02746 28-253; P02747 29-245).
T4 construct: also called intact C1q; native C1q; source: purified from human serum; copies: 6 + 6 + 6
The test is described as above.

T2 sequence (P26022 18-381): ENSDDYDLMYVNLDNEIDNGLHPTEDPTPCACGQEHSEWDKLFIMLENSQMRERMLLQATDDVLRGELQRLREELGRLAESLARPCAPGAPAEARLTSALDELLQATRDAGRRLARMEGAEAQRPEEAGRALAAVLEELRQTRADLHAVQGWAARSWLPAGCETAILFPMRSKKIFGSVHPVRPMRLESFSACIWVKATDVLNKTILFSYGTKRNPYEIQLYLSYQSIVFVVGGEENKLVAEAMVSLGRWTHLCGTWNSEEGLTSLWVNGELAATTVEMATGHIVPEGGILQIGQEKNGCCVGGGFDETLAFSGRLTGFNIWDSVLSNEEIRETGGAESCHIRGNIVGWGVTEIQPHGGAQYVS

B1: gC1qC module of C1q-scGR (residues 87-217 of mature C1qC) (domain or fragment, human, UniProt P02747 115-245, looked up)
chain: KQKFQSVFTVTRQTHQPPAPNSLIRFNAVLTNPQGDYDTSTGKFTCKVPGLYYFVYHASHTANLCVLLYRSGVKVVTFCGHTSKTNQVNSGGVLLRLQVGEEVWLAVNDYYDMVGIQGSDSVFSGFLLFPD
notes: globular domain of human C1q chain C; numbers count on: the mature protein; In the crystal it is joined on one chain between gC1qA and gC1qB: see m1; also called subunit C; source: 293-F cells, as part of the single chain C1q-scGR, purified
Turning to B1, the binding result in test [1] and in test [2] was “binds” throughout.
Take B2: the binding result in test [2] is given as “binds”.

B3: single-chain recombinant form of human C1q globular region (C1q-scGR) (domain or fragment)
chain: KDQPRPAFSAIRRNPPMGGNVVIFDTVITNQEEPYQNHSGRFVCTVPGYYYFTFQVLSQWEICLSIVSSSRGQVRRSLGFCDTTNKGLFQVVSGGMVLQLQQGDQVWVEKDPKKGHIYQGSEADSVFSGFLIFPSAGSGKQKFQSVFTVTRQTHQPPAPNSLIRFNAVLTNPQGDYDTSTGKFTCKVPGLYYFVYHASHTANLCVLLYRSGVKVVTFCGHTSKTNQVNSGGVLLRLQVGEEVWLAVNDYYDMVGIQGSDSVFSGFLLFPDGSAKATQKIAFSATRTINVPLRRDQTIRFDHVITNMNNNYEPRSGKFTCKVPGLYYFTYHASSRGNLCVNLMRGRERAQKVVTFCDYAYNTFQVTTGGMVLKLEQGENVFLQATDKNSLLGMEGANSIFSGFLLFPDMEA
modifications: N-glycan (biantennary, sialylated) at Asn 124 of C1qA
notes: globular domain of human complement C1q chain A (gC1qA), residues 88-223 of mature C1qA; numbers count on: the mature protein; Gly-Ser-Gly linker between gC1qA and gC1qC; Gly-Ser-Ala linker between gC1qC and gC1qB; globular domain of human complement C1q chain B (gC1qB), residues 90-226 of mature C1qB; An insect-cell version (C1qA 85-223, melittin signal peptide) was also made but was low-yield …
As to B3, in test [3], the Kd turned out to be 494 nM, the koff worked out at 0.00136 s⁻¹ and the kon was found to be 2800 M⁻¹ s⁻¹. For the same molecule, in test [4], the Kd amounted to 304 nM, the koff is 0.00067 s⁻¹ and the kon was 2220 M⁻¹ s⁻¹. Also, in test [5], the Kd was found to be 444 nM, the koff worked out at 0.000552 s⁻¹ and the kon was determined as 1320 M⁻¹ s⁻¹.
Consider B4, for which, in test [6], the Kd came out at 510 nM, the koff was found to be 0.00234 s⁻¹ and the kon was 4630 M⁻¹ s⁻¹. Also, in test [7], the Kd turned out to be 590 nM.
Regarding B5, in test [6], the Kd was found to be 344 nM, the koff amounted to 0.00149 s⁻¹ and the kon amounted to 4400 M⁻¹ s⁻¹. Also, in test [7], the Kd amounted to 7.2 nM, the koff was 0.000457 s⁻¹ and the kon was found to be 68000 M⁻¹ s⁻¹.

Usually koff stands for the rate constant with which the complex falls apart. In general, kon refers to the rate constant with which the complex forms.

These data come from PMC4774423 (Frontiers in Immunology, 2016).
